Data reported in patent US20180127513A1 (published 2018).
Changes are numbered by the printed parent chain. Names and notes keep the numbering of the source. Blank lines part the entries; values can stand above or below the binder they belong to.

Target: T1, human CD73 on cells (UniProt P21589 27-549)
T1 chain: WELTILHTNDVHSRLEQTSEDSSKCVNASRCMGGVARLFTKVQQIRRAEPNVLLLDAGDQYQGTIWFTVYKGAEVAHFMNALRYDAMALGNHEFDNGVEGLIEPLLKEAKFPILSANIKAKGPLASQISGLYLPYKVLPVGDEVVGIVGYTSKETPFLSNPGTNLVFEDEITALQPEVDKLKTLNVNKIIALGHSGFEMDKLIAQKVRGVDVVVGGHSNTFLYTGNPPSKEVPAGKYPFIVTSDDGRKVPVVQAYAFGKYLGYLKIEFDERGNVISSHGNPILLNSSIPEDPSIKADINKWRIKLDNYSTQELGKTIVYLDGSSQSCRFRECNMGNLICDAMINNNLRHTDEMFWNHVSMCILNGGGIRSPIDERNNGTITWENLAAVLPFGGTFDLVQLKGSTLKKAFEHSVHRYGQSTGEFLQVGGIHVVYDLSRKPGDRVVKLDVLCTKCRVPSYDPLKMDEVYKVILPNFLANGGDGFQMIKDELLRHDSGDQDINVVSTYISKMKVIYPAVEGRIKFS
Assay: FACS cell binding; Calu6 cells

Kd: 0.0964 µg/mL
B1: CD73.4-IgG2-C219S-IgG1.1f (antibody)
heavy: QVQLVESGGGVVQPGRSLRLSCAASGFTFSNYGMHWVRQAPGKGLEWVAVILYDGSNKYYPDSVKGRFTISRDNSKNTLYLQMNSLRAEDTAVYYCARGGSSWYPDSFDIWGQGTMVTVSSASTKGPSVFPLAPCSRSTSESTAALGCLVKDYFPEPVTVSWNSGALTSGVHTFPAVLQSSGLYSLSSVVTVPSSNFGTQTYTCNVDHKPSNTKVDKTVERKSCVECPPCPAPPVAGPSVFLFPPKPKDTLMISRTPEVTCVVVDVSHEDPEVKFNWYVDGVEVHNAKTKPREEQYNSTYRVVSVLTVLHQDWLNGKEYKCKVSNKALPSSIEKTISKAKGQPREPQVYTLPPSREEMTKNQVSLTCLVKGFYPSDIAVEWESNGQPENNYKTTPPVLDSDGSFFLYSKLTVDKSRWQQGNVFSCSVMHEALHNHYTQKSLSLSPG
light: not shown
modifications: N-terminal Gln 94% pyro-Q; 97% of heavy chains lack the C-terminal Lys

Kd: 0.0826 µg/mL
B2: CD73.4-IgG2-C219S (antibody)
heavy: B1 heavy with K274Q, Y296F, Y300F, L309V, A327G, S330A, S331P, A339T, V397M
light: not shown

Kd: 0.156 µg/mL
B3: CD73.10-IgG2-C219S-IgG1.1f (antibody)
heavy: B1 heavy with L52W, G55E
light: not shown

Kd: 0.162 µg/mL
B4: CD73.10-IgG2-C219S (antibody)
heavy: QVQLVESGGGVVQPGRSLRLSCAASGFTFSNYGMHWVRQAPGKGLEWVAVIWYDESNKYYPDSVKGRFTISRDNSKNTLYLQMNSLRAEDTAVYYCARGGSSWYPDSFDIWGQGTMVTVSSASTKGPSVFPLAPCSRSTSESTAALGCLVKDYFPEPVTVSWNSGALTSGVHTFPAVLQSSGLYSLSSVVTVPSSNFGTQTYTCNVDHKPSNTKVDKTVERKSCVECPPCPAPPVAGPSVFLFPPKPKDTLMISRTPEVTCVVVDVSHEDPEVQFNWYVDGVEVHNAKTKPREEQFNSTFRVVSVLTVVHQDWLNGKEYKCKVSNKGLPAPIEKTISKTKGQPREPQVYTLPPSREEMTKNQVSLTCLVKGFYPSDIAVEWESNGQPENNYKTTPPMLDSDGSFFLYSKLTVDKSRWQQGNVFSCSVMHEALHNHYTQKSLSLSPG
light: not shown

Kd: 0.188 µg/mL
B5: 11F11 (antibody, V domains shown)
VH: QVQLVESGGGVVQPGRSLRLSCATSGFTFSNYGMHWVRQAPGKGLEWVAVILYDGSNKYYPDSVKGRFTISRDNSKNTLYLQMNSLRAEDTAVYYCARGGSSWYPDSFDIWGQGTMVTVSS
VL: DIQMTQSPSSLSASVGDRVTITCRASQGISSWLAWYQQKPEKAPKSLIYAASSLQSGVPSRFSGSGSGTDFTLTISSLQPEDFATYYCQQYNSYPLTFGGGTKVEIKR
